Target: GAPDH (human (endogenous in U2OS)) (UniProt P04406)
Assay: cross-linking; titration of formaldehyde on intact adherent U2OS cells, quenched with Tris, extracted in SDS denaturing buffer, immunoblot of total cell lysates; 6% formaldehyde optimal

Sequence of GAPDH, P04406 1-335 (enzyme; other documents disagree on this pair) (P04406 whole entry): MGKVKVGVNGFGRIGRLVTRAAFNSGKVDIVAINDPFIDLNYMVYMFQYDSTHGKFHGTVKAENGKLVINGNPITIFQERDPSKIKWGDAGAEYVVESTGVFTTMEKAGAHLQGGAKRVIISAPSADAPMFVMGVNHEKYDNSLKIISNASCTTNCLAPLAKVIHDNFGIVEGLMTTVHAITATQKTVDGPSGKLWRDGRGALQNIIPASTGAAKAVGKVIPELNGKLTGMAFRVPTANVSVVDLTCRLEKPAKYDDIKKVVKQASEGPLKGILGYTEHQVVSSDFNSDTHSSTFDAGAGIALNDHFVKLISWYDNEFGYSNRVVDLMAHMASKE

Substance: GAPDH, P04406 1-335 (enzyme; other documents disagree on this pair)
- stoichiometry N: 4

Reference: article PMC4937518
